Experimental data taken from the Immune Epitope Database (IEDB).

Legend:
HLA-A*30:02 = assay: IEDB peptide-MHC binding, purified MHC/competitive/radioactivity; filed as Kd, often an IC50 or EC50 that approximates it; ≥ and ≤ were set here for values at or beyond the usual limits of such assays
HLA-B*53:01 = assay: as above
HLA-B*44:02 = assay: as above
HLA-A*26:01 [1] = assay: as above
HLA-A*01:01 = assay: as above
HLA-B*40:01 = assay: as above
HLA-A*29:02 = assay: as above
HLA-A*24:02 = assay: as above
HLA-A*23:01 = assay: as above
HLA-A*26:01 [2] = assay: IEDB peptide-MHC binding, purified MHC/direct/fluorescence; filed as Kd, often an IC50 or EC50 that approximates it; ≥ and ≤ were set here for values at or beyond the usual limits of such assays; conditions: source organism: Mycobacterium tuberculosis
HLA-B*44:03 = assay: IEDB peptide-MHC binding, purified MHC/competitive/radioactivity; filed as Kd, often an IC50 or EC50 that approximates it; ≥ and ≤ were set here for values at or beyond the usual limits of such assays
HLA-A*31:01 = assay: IEDB peptide-MHC binding, purified MHC/direct/fluorescence; filed as Kd, often an IC50 or EC50 that approximates it; ≥ and ≤ were set here for values at or beyond the usual limits of such assays
HLA-A*03:01 = assay: as above; conditions: source organism: Shigella sonnei Ss046
HLA-A*68:01 = assay: IEDB peptide-MHC binding, purified MHC/competitive/radioactivity; filed as Kd, often an IC50 or EC50 that approximates it; ≥ and ≤ were set here for values at or beyond the usual limits of such assays; conditions: source organism: SARS coronavirus Tor2
HLA-A*33:01 = assay: as above; conditions: source organism: SARS coronavirus Tor2
[3] = source organism: Dengue virus 3 Martinique/1243/1999
[4] = source organism: Dengue virus 4 Philippines/H241/1956
[5] = source organism: Dengue virus 1 Brazil/97-11/1997
[6] = source organism: SARS coronavirus Tor2
[7] = source organism: Mammarenavirus brazilense
[8] = source organism: Dengue virus 2 Jamaica/1409/1983
[9] = source organism: Dengue virus 1 Singapore/S275/1990
[10] = source organism: Mammarenavirus guanaritoense
[11] = source organism: Triticum aestivum
[12] = source organism: Lassa virus Josiah
[13] = source organism: Mammarenavirus choriomeningitidis

For KAELEEGVY, the Kd (HLA-A*30:02; [3]) was ≥ 52800 nM.

PVNDLKYSW gave a Kd (HLA-B*53:01; [4]) of 782 nM.

For WEPSKGWKNW, the Kd (HLA-B*44:02; [4]) was 150 nM.

MIDKTPVHSW showed a Kd (HLA-B*53:01; source organism: Dengue virus 4 Thailand/0348/1991) of 725 nM.

With STTEAILPEY the Kd (HLA-A*26:01 [1]; [3]) was 0.048 µM, the Kd (HLA-A*30:02; [3]) was ≥ 61200 nM and the Kd (HLA-A*01:01; [3]) was 232 nM.

With GEFRLRGEQR the Kd (HLA-B*40:01; [4]) was 1400 nM.

Work on EERDDTLTIL yielded a Kd (HLA-B*40:01; [5]) of 22 nM.

With ASEFSSLPSY the Kd (HLA-A*26:01 [1]; [6]) was 11.9 µM, the Kd (HLA-A*30:02; [6]) was 47.4 nM and the Kd (HLA-A*29:02; [6]) was 102 nM. For the same sequence, the Kd (HLA-A*24:02; [6]) was ≥ 70300 nM, the Kd (HLA-A*23:01; [6]) was ≥ 70000 nM and the Kd (HLA-A*01:01; [6]) was 14.1 nM.

For VTDVTLLMA, the Kd (HLA-A*26:01 [1]; [7]) was ≥ 77.9 µM, the Kd (HLA-A*30:02; [7]) was 423 nM and the Kd (HLA-A*29:02; [7]) was ≥ 23400 nM. For the same sequence, the Kd (HLA-A*24:02; [7]) was ≥ 77500 nM, the Kd (HLA-A*23:01; [7]) was 18200 nM and the Kd (HLA-A*01:01; [7]) was 8.7 nM.

Work on EVSARIAAL yielded a Kd (HLA-A*26:01 [2]) of 12.4 nM.

In the case of AYNVVNKGHF, the Kd (HLA-A*26:01 [1]; [6]) is reported as ≥ 37.5 µM, the Kd (HLA-A*30:02; [6]) is reported as 11200 nM and the Kd (HLA-A*29:02; [6]) is reported as 978 nM. For the same sequence, the Kd (HLA-A*24:02; [6]) was 316 nM, the Kd (HLA-A*23:01; [6]) was 476 nM and the Kd (HLA-A*01:01; [6]) was ≥ 55200 nM.

LWEGSPGKF was tested, and the Kd (HLA-A*24:02; [5]) was 6160 nM and the Kd (HLA-A*23:01; [5]) was 7640 nM.

GESNIVIGI gave a Kd (HLA-B*44:02; [3]) of 10.8 nM, a Kd (HLA-B*40:01; [3]) of 2.36 nM and a Kd (HLA-B*44:03; [3]) of 5.95 nM.

For ALGKSEFQIY, the Kd (HLA-A*30:02; [8]) was ≥ 69700 nM and the Kd (HLA-A*01:01; [8]) was 1540 nM.

In the case of TEKDSPVNI, the Kd (HLA-B*44:02; [8]) is reported as 587 nM.

In the case of VTDFKGKTV, the Kd (HLA-A*01:01; [8]) is reported as ≥ 20300 nM.

Sequence VEPWLKNNQF has a Kd (HLA-B*44:02; [3]) of 93.7 nM, a Kd (HLA-B*40:01; [3]) of 1620 nM and a Kd (HLA-B*44:03; [3]) of 162 nM.

With IYVILTILTI the Kd (HLA-A*24:02; [4]) was 48.6 nM and the Kd (HLA-A*23:01; [4]) was 11.8 nM.

LETPNLAERV was tested, and the Kd (HLA-B*40:01; [9]) was 1010 nM.

In the case of GLAAEWVLAY, the Kd (HLA-A*26:01 [1]; [6]) is reported as 0.363 µM, the Kd (HLA-A*30:02; [6]) is reported as 858 nM and the Kd (HLA-A*29:02; [6]) is reported as 69.4 nM. For the same sequence, the Kd (HLA-A*24:02; [6]) was ≥ 70300 nM, the Kd (HLA-A*23:01; [6]) was ≥ 70000 nM and the Kd (HLA-A*01:01; [6]) was 466 nM.

SYLAGAGLAF was tested, and the Kd (HLA-A*24:02; [5]) was 71.5 nM and the Kd (HLA-A*23:01; [5]) was 4.35 nM.

For QKATLTEGVY, the Kd (HLA-A*30:02; [4]) was 15.6 nM.

Work on LPEEQDQNY yielded a Kd (HLA-B*53:01; [3]) of 1520 nM.

SYSMCTGKF gave a Kd (HLA-A*24:02; [8]) of 108 nM and a Kd (HLA-A*23:01; [8]) of 142 nM.

RPVLFRYTR was tested, and the Kd (HLA-A*31:01; source organism: Shigella sonnei Ss046) was 416 nM and the Kd (HLA-A*03:01) was ≥ 20 µM.

TWALCEALTL gave a Kd (HLA-A*24:02; [8]) of 114 nM and a Kd (HLA-A*23:01; [8]) of 511 nM.

Sequence VEIWTKEGEK has a Kd (HLA-B*40:01; [3]) of 754 nM.

Work on FETTMRGAKR yielded a Kd (HLA-B*40:01; [8]) of 3580 nM.

With GHHTNFESF the Kd (HLA-A*26:01 [1]; [10]) was ≥ 77.9 µM and the Kd (HLA-A*30:02; [10]) was 3830 nM.

With QYPLGQGSF the Kd (HLA-A*26:01 [1]; [11]) was ≥ 77.9 µM, the Kd (HLA-A*30:02; [11]) was 1460 nM and the Kd (HLA-A*29:02; [11]) was ≥ 22900 nM. For the same sequence, the Kd (HLA-A*24:02; [11]) was 1450 nM, the Kd (HLA-A*23:01; [11]) was 8090 nM and the Kd (HLA-A*01:01; [11]) was ≥ 71000 nM.

In the case of ESQMLIPKAY, the Kd (HLA-A*30:02; [4]) is reported as 8.93 nM and the Kd (HLA-A*01:01; [4]) is reported as ≥ 39300 nM.

For VYPLSIPATL, the Kd (HLA-A*24:02; [9]) was 111 nM and the Kd (HLA-A*23:01; [9]) was 15.3 nM.

QEKGKSLLF was tested, and the Kd (HLA-B*44:02; [8]) was 52.7 nM and the Kd (HLA-B*44:03; [8]) was 1140 nM.

In the case of AVLQSGFRK, the Kd (HLA-A*68:01) is reported as 393 nM, the Kd (HLA-A*33:01) is reported as ≥ 77.7 µM and the Kd (HLA-A*31:01; source organism: SARS-CoV1) is reported as 186 nM.

VFRTSTPRVV was tested, and the Kd (HLA-A*26:01 [1]; [12]) was ≥ 69.7 µM, the Kd (HLA-A*30:02; [12]) was 6350 nM and the Kd (HLA-A*29:02; [12]) was ≥ 71400 nM. The Kd (HLA-A*24:02; [12]) was ≥ 70300 nM, the Kd (HLA-A*23:01; [12]) was ≥ 70000 nM and the Kd (HLA-A*01:01; [12]) was ≥ 70400 nM.

In the case of KHMIAGVFF, the Kd (HLA-A*24:02; [3]) is reported as 837 nM.

For STSQKSIVAY, the Kd (HLA-A*26:01 [1]; [6]) was 0.79 µM, the Kd (HLA-A*30:02; [6]) was 17.1 nM and the Kd (HLA-A*29:02; [6]) was 44.5 nM. For the same sequence, the Kd (HLA-A*24:02; [6]) was ≥ 70300 nM, the Kd (HLA-A*23:01; [6]) was ≥ 70000 nM and the Kd (HLA-A*01:01; [6]) was 534 nM.

LWYAQIQPHW was tested, and the Kd (HLA-A*24:02; [8]) was 13.1 nM and the Kd (HLA-A*23:01; [8]) was 203 nM.

Sequence FWITAIYVF has a Kd (HLA-A*26:01 [1]; [6]) of 0.547 µM, a Kd (HLA-A*30:02; [6]) of 22.8 nM and a Kd (HLA-A*29:02; [6]) of 26.9 nM. The Kd (HLA-A*24:02; [6]) was 853 nM, the Kd (HLA-A*23:01; [6]) was 163 nM and the Kd (HLA-A*01:01; [6]) was 629 nM.

With KEFASGRKSI the Kd (HLA-B*40:01; [4]) was 111 nM.

Work on LIDGISLGL yielded a Kd (HLA-A*01:01; source organism: Dengue virus 4 Dominica/814669/1981) of 10400 nM.

With IPQWEPSKGW the Kd (HLA-B*53:01; [5]) was 90 nM.

With WCSQTNYQY the Kd (HLA-A*26:01 [1]; [13]) was ≥ 77.9 µM, the Kd (HLA-A*30:02; [13]) was 734 nM and the Kd (HLA-A*29:02; [13]) was 204 nM. The Kd (HLA-A*24:02; [13]) was ≥ 77500 nM, the Kd (HLA-A*23:01; [13]) was ≥ 77700 nM and the Kd (HLA-A*01:01; [13]) was 964 nM.
